This test deals with ectodomain of the epidermal growth factor receptor, EGFR25-645 (human). The test is described as follows: BLI; biotinylated ligand (50 nM, 5 min) on streptavidin sensors, DDM proteomicelles of the membrane protein in the wells (six two-fold dilutions); 20 mM Tris-HCl, 300 mM KCl, 0.2% (w/v) DDM, 1 mg/ml BSA, pH 7.5; 22 °C; global fits, KD = koff/kon. (BLI is a label-free optical method that tracks binding on a fibre tip over time.)

Several values for one entry are separate records, joined by “and”; a condition that tells them apart may be missing. Equal entries are not always repeated.

Sequence of TGF-α(GGS)2tFhuA (chain): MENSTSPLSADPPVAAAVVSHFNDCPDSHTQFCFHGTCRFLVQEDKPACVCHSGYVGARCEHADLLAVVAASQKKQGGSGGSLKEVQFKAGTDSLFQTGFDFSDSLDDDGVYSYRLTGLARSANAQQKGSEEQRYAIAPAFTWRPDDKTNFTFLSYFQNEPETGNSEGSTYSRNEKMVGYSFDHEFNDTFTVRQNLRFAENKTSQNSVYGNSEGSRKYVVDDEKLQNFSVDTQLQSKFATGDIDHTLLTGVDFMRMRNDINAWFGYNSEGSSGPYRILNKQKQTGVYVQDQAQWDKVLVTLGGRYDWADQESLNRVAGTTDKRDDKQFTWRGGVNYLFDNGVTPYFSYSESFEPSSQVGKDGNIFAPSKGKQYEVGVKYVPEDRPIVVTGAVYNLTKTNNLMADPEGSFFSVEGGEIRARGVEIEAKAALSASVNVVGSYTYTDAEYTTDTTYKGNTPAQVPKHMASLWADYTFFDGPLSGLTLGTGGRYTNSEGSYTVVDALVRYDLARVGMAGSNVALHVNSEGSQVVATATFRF

By kon is commonly meant the second-order rate constant of association. Turning to TGF-α(GGS)2tFhuA, the kon was 2600 M⁻¹ s⁻¹ and 2400 M⁻¹ s⁻¹ and 2500 M⁻¹ s⁻¹.

(Values after publication PMC12613146.)
